In PMC6321479, “The C Terminus of the Ribosomal-Associated Protein LrtA Is an Intrinsically Disordered Oligomer” (International Journal of Molecular Sciences, 2018):

Experiments:
[1] = target: the molecule itself; experiment: SEC; Superose 12 10/300 GL, pH 8.0 (50 mM Tris), 0.250 M NaCl, 0.8 mL/min; C-LrtA loaded at 30 uM (protomer), 100 uL
[2] = target: the molecule itself; experiment: native gel or EMSA; blue-native PAGE, linear 4-16% gradient gel, 20 ug C-LrtA with Coomassie Brilliant blue G, 4 °C; increasing amounts of SDS also tested
[3] = target: the molecule itself; experiment: SEC; Superose 12 10/300 GL, pH 8.0 (50 mM Tris), 0.250 M NaCl, 0.8 mL/min; C-LrtA loaded at 500 uM (protomer), 100 uL
[4] = target: the molecule itself; experiment: cross-linking; glutaraldehyde, pH 7.2 (50 mM Tris), 120 uM C-LrtA (protomer), 200 uL, several reaction times, SDS-PAGE

B1: C-terminal region of LrtA (C-LrtA, residues 102-191) with N-terminal His-tag (domain or fragment, Synechocystis sp. PCC 6803)
chain: QHGNVKTSEIVEDKPVEENLIGDRAPELPSEVLRMKYFAMPPMAIEDALEQLQLVDHDFYMFRNKDTDEINVIYIRNHGGYGVIQPHQAS
notes: LrtA of Synechocystis sp; PCC 6803 (191 residues), residues 102-191; whole construct 109 residues with the His-tag, 12,449.89 Da; Cloned in pHTP1 by NZytech; also called isolated C-LrtA; C-terminal half of LrtA protein; source: E. coli BL21 (DE3), purified (Ni-resin IMAC, Hi-Trap Mono Q)
- stoichiometry N [1]: ~2
- stoichiometry N [2]: 5
- stoichiometry N [3]: ~8
- stoichiometry N [4]: 2
